Reference: patent US20070032640A1, “Cytokine receptor” (priority 2001, published 2007)
Substitutions are numbered along the chain they refer to. One block for each molecule: values may come before it.

What was measured:
[1] = target: T1, human soluble interleukin 6 receptor α-chain (hsIL6Rα) and hsgp130 (Homo sapiens, UniProt P08887); assay: High capacity screening assay: binding of europium-labelled human IL6 to hsIL6Rα and immobilised hsgp130; conditions: Eu-IL-6 binding by time resolved fluorescence as % of control, FIG. 7A
T1 construct: human soluble interleukin 6 receptor α-chain (hsIL6Rα)
T1 sequence (P08887 20-355 limits assumed): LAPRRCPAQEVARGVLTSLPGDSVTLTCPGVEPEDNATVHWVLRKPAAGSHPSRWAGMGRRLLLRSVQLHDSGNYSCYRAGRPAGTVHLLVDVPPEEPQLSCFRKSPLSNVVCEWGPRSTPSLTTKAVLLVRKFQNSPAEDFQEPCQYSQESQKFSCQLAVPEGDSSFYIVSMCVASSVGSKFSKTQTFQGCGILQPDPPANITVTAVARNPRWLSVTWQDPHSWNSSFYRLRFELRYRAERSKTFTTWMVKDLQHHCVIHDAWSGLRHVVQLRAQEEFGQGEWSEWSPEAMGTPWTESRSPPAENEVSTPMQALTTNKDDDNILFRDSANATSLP
Source text: Compounds designed according to the methods of the present invention may be assessed by a number of in vitro and in vivo assays of hormone function. For example, the identification of IL-6 receptor antagonists of may be undertaken using a solid-phase receptor binding assay. Potential antagonists may be screened for their ability to inhibit the binding of europium-labelled IL-6 receptor ligands to soluble, recombinant IL-6 receptor in a microplate-based format. Europium is a lanthanide fluorophore, the presence of which can be measured using time-resolved fluorometry. The sensitivity of this assay matches that achieved by radioisotopes, measurement is rapid and is performed in a microplate format to allow high-sample throughput, and the approach is gaining wide acceptance as the method of choice in the development of screens for receptor agonists/antagonists (see Apell et al., J. Biomolec. Screening 3:19-27, 1998: Inglese et al., Biochemistry 37:2372-2377, 1998).
(§1) Solid phase receptor binding assays. Ten compounds selected from Table 3 (NCI compounds) were tested for their ability to modulate the binding of europium-labelled IL-6 to soluble, recombinant IL-6 receptor (A) or the binding of europium-labelled IGF-1 to soluble, recombinant IGF-1 receptor (B) in a microplate-based format. Binding to the receptor is measured by time resolved fluorescence (TRF) as a % of control.
Ten of the compounds listed in Table 3 were tested for their ability to modulate binding of IL-6 to IL-6R/gp130. The high throughput screening assay used for this purpose detects the binding of europium-labelled human IL6 (Eu-hIL6) to human soluble interleukin 6 receptor α-chain (hsIL6Rα) and hsgp130 immobilised on the surface of wells of a microtitre plate. The protocol followed was essentially as follows: […]
The fractions were assayed for europium by diluting 10,000-fold in 200 μL of DELFIA enhancement solution and measuring europium fluorescence. […] The concentration of Eu-IL6 was determined from the absorbance at 280 nm (0.5 AU/mg/mL) and the labelling stoichiometry based on a molecular mass of 21,300. […]

[2] = target: T2, soluble, recombinant IGF-1 receptor (Homo sapiens, UniProt P08069); assay: Solid phase receptor binding assay, IGF-1R/IGF-1 system (specificity); conditions: Eu-IGF-1 binding to IGF-1 receptor, FIG. 7B
T2 construct: soluble, recombinant IGF-1 receptor
T2 sequence (P08069 31-736): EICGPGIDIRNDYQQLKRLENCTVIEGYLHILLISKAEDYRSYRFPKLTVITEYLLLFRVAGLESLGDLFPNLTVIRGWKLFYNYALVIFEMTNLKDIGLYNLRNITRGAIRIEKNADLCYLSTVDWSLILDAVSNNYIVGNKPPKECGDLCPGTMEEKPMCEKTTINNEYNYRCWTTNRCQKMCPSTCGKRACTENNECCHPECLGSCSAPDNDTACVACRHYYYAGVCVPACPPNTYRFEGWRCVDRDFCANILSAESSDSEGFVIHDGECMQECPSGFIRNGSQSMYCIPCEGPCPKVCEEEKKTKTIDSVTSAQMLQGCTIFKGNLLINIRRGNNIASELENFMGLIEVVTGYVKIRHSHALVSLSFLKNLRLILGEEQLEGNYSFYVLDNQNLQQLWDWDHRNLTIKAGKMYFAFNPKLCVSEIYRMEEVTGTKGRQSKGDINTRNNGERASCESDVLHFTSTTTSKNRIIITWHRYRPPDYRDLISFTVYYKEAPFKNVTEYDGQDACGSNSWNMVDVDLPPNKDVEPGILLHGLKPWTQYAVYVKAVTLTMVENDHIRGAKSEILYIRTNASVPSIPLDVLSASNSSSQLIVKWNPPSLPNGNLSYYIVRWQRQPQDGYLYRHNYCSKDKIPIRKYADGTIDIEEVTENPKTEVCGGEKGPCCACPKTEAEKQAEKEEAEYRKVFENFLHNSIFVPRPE
T2 sequence (P08069 741-935): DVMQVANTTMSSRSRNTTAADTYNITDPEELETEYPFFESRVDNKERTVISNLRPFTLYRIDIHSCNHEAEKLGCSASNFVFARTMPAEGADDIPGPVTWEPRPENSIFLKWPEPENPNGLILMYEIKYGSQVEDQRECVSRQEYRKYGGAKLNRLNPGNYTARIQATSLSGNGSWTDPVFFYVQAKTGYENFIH
Protocol: as §1
In order to examine specificity, the compounds were also assayed against the IGF receptor system in an identical manner.

gp130 [3] = target: T3, gp130 (Homo sapiens, UniProt P40189); parameters: endogenous in cells; host or cells: human myeloma U266 cells; conditions: human myeloma U266 cells, high-affinity binding; read-out: affinity of IL-6/IL-6R complex for gp130; cited from earlier work
T3 sequence (P40189 23-918): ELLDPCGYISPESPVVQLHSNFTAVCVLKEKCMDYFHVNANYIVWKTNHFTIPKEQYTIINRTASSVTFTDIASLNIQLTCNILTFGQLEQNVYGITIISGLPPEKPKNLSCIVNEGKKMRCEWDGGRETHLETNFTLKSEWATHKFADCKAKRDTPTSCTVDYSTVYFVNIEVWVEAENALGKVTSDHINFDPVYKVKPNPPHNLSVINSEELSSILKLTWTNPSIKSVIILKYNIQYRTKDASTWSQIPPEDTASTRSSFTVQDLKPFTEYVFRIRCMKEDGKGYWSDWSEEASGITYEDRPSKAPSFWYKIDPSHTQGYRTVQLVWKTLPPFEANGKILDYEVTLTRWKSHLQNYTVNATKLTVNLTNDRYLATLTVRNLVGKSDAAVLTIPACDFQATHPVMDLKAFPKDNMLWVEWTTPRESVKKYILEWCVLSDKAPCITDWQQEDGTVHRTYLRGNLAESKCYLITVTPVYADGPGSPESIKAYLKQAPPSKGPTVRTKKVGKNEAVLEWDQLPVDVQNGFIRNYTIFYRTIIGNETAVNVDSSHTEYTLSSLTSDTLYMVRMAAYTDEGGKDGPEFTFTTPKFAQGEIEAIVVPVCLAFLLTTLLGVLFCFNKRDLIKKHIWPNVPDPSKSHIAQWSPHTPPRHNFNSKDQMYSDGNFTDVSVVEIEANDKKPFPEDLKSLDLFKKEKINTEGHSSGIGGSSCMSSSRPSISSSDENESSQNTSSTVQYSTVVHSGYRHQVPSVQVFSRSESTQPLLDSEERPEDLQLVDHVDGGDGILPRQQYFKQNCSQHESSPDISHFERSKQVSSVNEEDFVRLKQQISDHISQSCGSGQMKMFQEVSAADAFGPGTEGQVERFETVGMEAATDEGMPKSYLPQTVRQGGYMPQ

IL-6R = target: T4, IL-6R (Homo sapiens, UniProt P08887); conditions: human myeloma U266 cells, low-affinity binding; cited from earlier work
T4 construct: endogenous in cells; host or cells: human myeloma U266 cells
T4 sequence (P08887 20-468): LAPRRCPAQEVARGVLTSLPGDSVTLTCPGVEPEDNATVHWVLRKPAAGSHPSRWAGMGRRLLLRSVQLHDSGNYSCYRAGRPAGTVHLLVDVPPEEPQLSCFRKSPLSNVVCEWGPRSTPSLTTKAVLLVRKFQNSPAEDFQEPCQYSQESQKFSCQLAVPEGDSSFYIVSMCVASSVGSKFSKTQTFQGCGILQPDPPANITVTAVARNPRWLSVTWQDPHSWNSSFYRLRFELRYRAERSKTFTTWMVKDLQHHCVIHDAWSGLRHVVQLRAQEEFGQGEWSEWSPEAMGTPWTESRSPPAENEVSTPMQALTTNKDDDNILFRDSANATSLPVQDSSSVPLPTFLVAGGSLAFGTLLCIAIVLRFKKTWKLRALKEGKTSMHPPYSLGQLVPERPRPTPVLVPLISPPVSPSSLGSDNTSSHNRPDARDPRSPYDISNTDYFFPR

gp130 [4] = target: T3, gp130; conditions: IL-6R N-D mutant; cited from earlier work
IL-6 = IL-6 binding of IL-6R mutant, relative to wild type; cited from earlier work
gp130 signalling = gp130 signalling of IL-6R mutant, relative to wild type; cited from earlier work

Molecule: O=C(C[n+]1ccc2ccccc2c1)c1ccc(-c2ccccc2)cc1 [compound 17791, 1-[1,1′-biphenyl]-4-yl-2-(2^5-isoquinolin-2-yl)ethanone]
effect on IL-6 binding to IL-6R/gp130 (antagonist or agonist) [1]: agonists
specificity against the IGF-1R/IGF-1 system [2]: specifically

effect on IL-6 binding to IL-6R/gp130 (antagonist or agonist) [1]: antagonist
specificity against the IGF-1R/IGF-1 system [2]: specifically
Molecule: Nc1c(C(=O)Nc2ccc3c(c2)C(=O)c2ccccc2C3=O)ccc2c1C(=O)c1ccccc1C2=O [compound 39914, 1-amino-N-(9,10-dioxo-9,10-dihydro-2-anthracenyl)-9,10-dioxo-9,10-dihydro-2-anthracenecarboxamide]

effect on IL-6 binding to IL-6R/gp130 (antagonist or agonist) [1]: agonists
specificity against the IGF-1R/IGF-1 system [2]: specifically
Molecule: O=C(O)c1ccccc1C(=O)Nc1cc2c(cc1Br)-c1ccccc1C2=O [compound 56681, 2-(((3-bromo-9-oxo-9H-fluoren-2-yl)amino)carbonyl)benzoic acid]

Molecule: IL-6/IL-6R complex: complex of IL-6 with the ligand binding α-chain receptor IL-6R
Kd (gp130 [3]): ~0.01 nM

Molecule: IL-6: multifunctional cytokine, natural ligand of the IL-6 receptor
Kd (IL-6R): ~1 nM

B1: N211: IL-6R N-D mutant at N211 (protein, UniProt P08887 20-468, looked up, variant N211D)
Interleukin-6 receptor …: T4 sequence (P08887 20-468) with N211D
binding to gp130 (gp130 [4]): N-D mutant, <10% binding to gp130
Binding (IL-6): 75%

B2: H261: IL-6R H-I mutation at H261 (protein, UniProt P08887 20-468, looked up, variant H261I)
Interleukin-6 receptor …: T4 sequence (P08887 20-468) with H261I
Signalling (gp130 signalling): 10%
Binding (IL-6): 115%

B3: D262: IL-6R D-G mutant at D262 (protein, UniProt P08887 20-468, looked up, variant D262G)
Interleukin-6 receptor …: T4 sequence (P08887 20-468) with D262G
Signalling (gp130 signalling): <10%
Binding (IL-6): 30%

B4: V259: IL-6R V-N mutant at V259 (protein, UniProt P08887 20-468, looked up, variant V259N)
Interleukin-6 receptor …: T4 sequence (P08887 20-468) with V259N
Signalling (gp130 signalling): 140%
Binding (IL-6): 40%
